experiment: soluble on expression in E. coli; label from the status in PepcDB or PDB records

Sequence	soluble on expression in E. coli
SPIIPEAARALYYNDGMFEGDIKLRAGRQPARVGAAILGDEYLWSGGVIPYTFAGVSGADQSAILSGMQELEEKTCIRFVPRTTESDYVEIFTSGSGCWSYVGRISGAQQVSLQANGCVYHGTILHALMHAIGFYHEHTRMDRDNYVTINYQNVDPSMTSNFDIDTYSRYVGEDYQYYSIMHYGKYSFSIQWGVLETIVPLQNGIDLTDPYDKAHMLQTDANQINNLYTNECSLR	soluble
SPLPDTMFCAQQIHIPPELPDILKQFTKAAIRTQPADVLQWSAGYFSALSRGDPLPVKDRIEMPVATQKTDTGLTQGLLKVLHKQCSHKQYVELADLEKKWKNLCLPVEKLRTILELDPCEDKIEWIKFLALGCSSLGRTLNTAMKNVCEILTSDPEGGPARIPFETFAYVYQYLSGLDPELPAVETENYLTSLRLMSESRKNGMIGLSDFFVGKKII	soluble
SPSAEECGYSDRVRSITLGNSTITTQESANVVVGYGRWPEYLRDDEATAEDQPTQPDVATCRFYTLESVTWEKDSPGWWWKFPDALKDMGLFGQNMYYHYLGRAGYTIHVQCNASKFHQGCLLVVCVPEAEMGCSTVDGTVNEHGLSEGETAKKFSATGTNGTNTVQSIVTNAGMGVGVGNLTIFPHQWINLRTNNCATIVMPYINNVPMDNMFRHHNFTLMIIPFVPLNYSSDFSTYVPITVTVAPMCAEYNGLRLSTALQ	soluble
SPSDVLVIENKHLTKEWPSGGQMMVNNLTAKYTSDGRAVLQDLSFSVNAGQRVGLLGRTGAGKSTLLSALLRLLSTEGEIQIDGISWNSVSLQKWRKAFGVIPQKVFVFSGTFRKNLDPYEQWSDEEIWKVTEEVGLKSMIEQFPDKLNFVLVDGGYILSNGHKQLMCLARSILSKAKILLLDEPTAHLDPVTFQIIRKTLKHTFSNCTVILSEHRVEALLECQQFLVIEGCSVKQFDALQKLLTEASLFKQVFGHLDRAKLFTAHRRNSSKRKTRPKISALQEEAEEDLQETRL	soluble
SPSSPLRVAVVCSSNQNRSMEAHNILSKRGFSVRSFGTGTHVKLPGPAPDKPNVYDFKTTYDQMYNDLLRKDKELYTQNGILHMLDRNKRIKPRPERFQNCTDLFDLILTCEERVYDQVVEDLNSREQETCQPVHVVNVDIQDNHEEATLGAFLICELCQCVSLSSWVLLGLLIATYKNKIK	soluble
SQKPCKENEGKPKCSVPKREEKRPYGEFERQQTEGNFRQRLLQSLEEFKEDIDYRHFKDEEMTREGDEMERCLEEIRGLRKKFRALHSNHRHSRDRPYPI	soluble
SQYKNISEKIVHIIQQEFDTDLTLESIAGRLHYNPNYLSSIFRKEMKISFSEYLSSYRHHIAKNWLTETTMSVKEISEKLKYKNPQNFIRSFKKLEGITPGKYRELKNHS	soluble
SRRLRTPLQDLTRAATSLAAGNSRIRVPAGGAGPEVATLAHAFNTMADRLEHTEQVRRQMLSDLAHEMGTPLSVLTAYLDGLQDGVVDWNNANHTIMADQLTRLTRLMEDIDYVSRAQEHRIDLDLAEEGLGD	not soluble
SRVDKFSKSDIIVSPSILSANFSKLGEQVKAIEQAGCDWIHVDVMDGRFVPNITIGPLVVDSLRPITDLPLDVHLMIVEPDQRVPDFIKAGADIVSVHCEQSSTIHLHRTINQIKSLGAKAGVVLNPGTPLTAIEYVLDAVDLVLIMSVNPGFGGQSFIESQVKKISDLRKICAERGLNPWIEVDGGVGPKNAYKVIEAGANALVAGSAVFGAPDYAEAIKGIKTSKRPE	soluble
SRVFLDHNALPDTLKVTYDSFCSNGVTHRNQPRGDCDGVQINVPITFQVKVTATECIQEQSFVIRALGFTDIVTVQVLPQCECRCRDQSRDRSLCHGKGFLECGICRCDTGYIGKNCEHH	soluble
SSGNHIFKGRAAGIAVNENGKGLITENVIRENQWGGVDIRRGGIPVLRSNLICFGYSDGVVVGDEGKGLIEGNTIYANKGCGVWMMSSSLPHVTSNHVSYNGLYGVAVFSQKDGSSELPRGHRAQENFSEDGDAILWETELEKEDDPLRRPITIALVESNSINHNGASGLYVQSSEALHVITNVIHANGDRGITVAQSSQPTRVANNSISCNRQSGVKVEAQCKVELRGNGIYDNRGHGIITKGDSTIVIENDIIGNRGSGLQLLPRSDTKVIKNRIHSFRAYGIAVRGRAKALVQENIIFQGKTSKTIFQQISNNRECIMQNNKFLVFKKKSDTWR	soluble
SSNQTPYIGSKISLISKLDIRYEGILYTVDTNDSTIALAKVRSFGTEKRPTANPVAARDDVYEYIIFKASDIKDLIVCDTPKMANIGGGLPYDPAIISVSSRSAPASDGAPAASAGSSRAGTPSRNSPLGQIIQNQRPGRGGYQQNFQANRGYNNYRGGFAGGYNNQRGHNNYGVPRVNHREKLKFESDFDFEKANEKFQEVLVDNLEKLNIEDKAEPEVEEKKDAAFYDKKTSFFDNISCESLEKAEGKTGRPDWKKERETNQETFGHNAVRSLNYRRGFGGRGRGGNRGYGGYNNGYQHQHQHRGGYNGGYRQNNGGYRRGGYAPRDNQGNTAAAAEQ	not soluble
SSRTFTEQLNALLELGCETLGSSFGTLSRVHGDEYVFEAVTAPTTADLEAGRTTSIEDLPNCRHVVEHREPLAIRDVEADAPDLADPEWGIVNYIGAPVVVDGAVYGTFCFYGLEPRTAEFTQWDLTFVRLLSDWAGYELERQRHSEQRDALNTAF	not soluble
SSSPPEGKLETKAGHPPAVKAGGMRIVQKHPHTGDGKEERDKDDQEWESTSPPKPTVFISGVIARGDKDFPPAAAQVAHQKPHASMDKHVSPRTQHIQQPRK	soluble
STDDKDVLRDVWFGRIPTCFTLYQDEITEREAEPYYLLLPRVSYLTLVTDKVKKHFQKVMRQEDVSEIWFEYEGTPLKWHYPIGLLFDLLASSSALPWNITVHFKSFPEKDLLHCPSKDAVEAHFMSCMKEADALKHKSQVINEMQKKDHKQLWMGLQNDRFDQFWAINRKLMEYPPEENGFRYIPFRIYQTTTERPFIQKLFRPVAADGQLHTLGDLLREVCPSAVAPEDGEKRSQVMIHGIEPMLETPLQWLSEHLSYPDNFLHISIVPQPTD	soluble
STVSEAYSPPLFSIAPMMGWTDNHYRTLARLITKHAWLYTEMLAAETIVYQEDNLDSFLAFSPDQHPIVLQIGGRNLENLAKATRLANAYAYDEINFNCGCPSPKVSGRGCFGALLMLDPKFVGEAMSVIAANTNAAVTVKCRIGVDDHDSYNELCDFIHIVSSLSPTKHFIIHSRKALLSGLSPSDNRRIPPLKCVQKVFLCPFA	soluble
SVGTAGISLLLLWYHKVRKPGIAMKLPEFLSLGNTFNSITLQDEIHDDQGTTVIFQERQLQILEKLNELLTNMEELKEEIRFLKEAIPKLEEYIQDELGGKITVHKISPQHRARKRRLPTIQSSATSNSSEEAESEGGYITANTDTEEQSFPVPKAFNTRVEELNLDVLLQKVDHLRMSESGKSESFELLRDHKEKFRDEIEFMWRFARAYGDMYELSTNTQEKKHYANIGKTLSERAINRAPMNGHCHLWYAVLCGYVSEFEGLQNKINYGHLFKEHLDIAIKLLPEEPFLYYLKGRYCYTVSKLSWIEKKMAATLFGKIPSSTVQEALHNFLKAEELCPGYSNPNYMYLAKCYTDLEENQNALKFCNLALLLPTVTKEDKEAQKEMQKIMTSLKR	soluble
SVISESMDILFRIRGGLDLAFQLATPNEIFLKKALKHVLSDLSTKLSSNALVFRICHSSVYIWPSSDINTIPGELTDASACKTILRFIQFEPEEDIKRKFMRKKDKKLSDMHQIVNIDLMLEMSTSLAAVTPIIERESGGHHYVNMTLPVDAVISVAPEETWGKVRKLLVDAIHNQLTDMEKCILKYMKGTSIVVPEPLHFLLPGKKNLVTISYPSGIPDGQLQAYRKELHDLFNLPHDRPYFKRSNAYHFPDEPYKDGYIRNPHTYLNPPNMETGMIYVVQGIYGYHHYMQDRIDDNGWGCAYRSLQTICSWFKHQGYTERSIPTHREIQQALVDAGDKPATFVGSRQWIGSIEVQLVLNQLIGITSKILFVSQGSEIASQGRELANHFQSEGTPVMIGGGVLAHTILGVAWNEITGQIKFLILDPHYTGAEDLQVILEKGWCGWKGPDFWNKDAYYNLCLPQRPNMI	not soluble
SVSTTFRRIVSPCWRPFGIGEDSSPGSDDTNGRLDGLLWYKDSGNHITGEFSMAVVQANNLLEDHSQLESGPISLHESGPEATFVGVYDGHGGPEAARFVNDRLFYNIKRYTSEQRGMSPDVITRGFVATEEEFLGLVQEQWKTKPQIASVGACCLVGIVCNGLLYVANAGDSRVVLGKVANPFKELKAVQLSTEHNASIESVREELRLLHPDDPNIVVLKHKVWRVKGIIQVSRSIGDAYLKRAEFNQEPLLPKFRVPERFEKPIMRAEPTITVHKIHPEDQFLIFASDGLWEHLSNQEAVDIVNSCPRNGVARKLVKAALQEAAKKREMRYSDLEKIERGIRRHFHDDITVIVVFLHATNFATRTPISVKGGGLLSAHNPVL	soluble
SVYINRMTGLSTFVAPTDDLHTACTKDLTTVAVDVLLGNDAVDAAAAAVSEPLQSLFSEWSNPVFARYPEVAVDVSSGQAESLAVKIHNVLYPYRFTKEMIHSVKVLQQVDNKFIACLMSTRMDEDGRTGGNLLVLVDQHAAHERIRLEQLITDSYEKQDPQSAGRKKLLSSTIIPPLAITVSEEQRRLLRN	soluble
SYIDIPPEGSETKNRHNANNPSDVLVIENKHLTKEWPSGGQMMVNNLTAKYTSDGRAVLQDLSFSVNAGQRVGLLGRTGAGKSTLLSALLRLLSTEGEIQIDGISWNSVSLQKWRKAFGVIPQKVFVFSGTFRKNLDPYEQWSDEEIWKVTEEVGLKSMIEQFPDKLNFVLVDGGYILSNGHKQLMCLARSILSKAKILLLDEPTAHLDPVTFQIIRKTLKHTFSNCTVILSEHRVEALLECQQFLVIEGCSVKQFDALQKLLTEASLFKQVFGHLDRAKLFTAHRRNSSKRKTRPKISALQ	not soluble
TDDVEEDGEPSYKRVAEPEEDESAKPFGGEKAKAARPEPAVKGVRHTSPAPTAAPEKKTSWWDSFKAWLKRIFGGSETQAAPAAETSEKRSTANRSGSRANNRRQNPRRSKREGSKVEVREVAGKTAGQEARADKAETRNNGNRRRNERGDRAAERANEAEIQSRNVQPAATVADAAPSETEVQTGKRRRNGSRSERGQTAPETATVAETTVQTAENTPSEPHTAEDKGSKPKSERNRRERDSRDAKERRERNNQRDRRQNGKKRNIPSAAKIEQYLNIHDTADKVRSAAAHVFGETDANAPITVSIADPVAERDLPTASPAVSNGDAPVYDAAEKIRRATAAILPEGATPKAEAQEMPSETATFTAAAEQARETAQTGGLVLIETDPAALKAWAAQPEVQAGRGLRRSEQPKPSEVATVPAEEMIQVETRQG	not soluble
TEDSLMPEEEFLRRNKGPVSIKVQVPNMQDKTEWKLNGQGLVFTLPLTDQVSVIKVKIHEATGMPAGKQKLQYEGIFIKDSNSLAYYNMASGAVIHLALKER	soluble
TEKTKAVETTDVALAIDTLVQNGLKALDEMRQLNQEQVDYIVAKASVAALDAHGELALHAVEETGRGVFEDKATKNLFACEHVVNNMRHTKTVGVIEEDDVTGLTLIAEPVGVVCGITPTTNPTSTAIFKSLISLKTRNPIIFAFHPSAQESSAHAARIVRDAAIAAGAPENCVQWIEQPSIDATNALMNHDGIATILATGGNAMVKAAYSCGKPALGVGAGNVPAYVEKSANIRQAAHDIVMSKSFDNGMVCASE	not soluble
TETTSFLITKFSPDQQNLIFQGDGYTTKEKLTLTKAVKNTVGRALYSSPIHIWDRETGNVANFVTSFTFVINAPNSYNVADGFTFFIAPVDTKPQTGGGYLGVFNSAEYDKTTQTVAVEFDTFYNAAWDPSNRDRHIGIDVNSIKSVNTKSWKLQNGEEANVVIAFNAATNVLTVSLTYPN	soluble

From the DeepSol protein solubility set
